A short description of the data set: soluble fraction after stress (log2 fold change); higher = more stays soluble; pooled small domains, quantitative proteomics. As to conditions: stress: 75 degC.

Bounds are passed on as bounds.
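Note: 20 min heating vs room temperature control held 20 min.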

For “HMKNNAIAPDQVVSLLKNEVNYNDDGRIEILDNNKNIRYNSKGELLTIEERVNEFLDANPHFRK”, the “soluble fraction (log2)” value came to 0.0664.

Take “HMKNSMANVQARREKILSAVDQSEPVAVEGLAQRFNVSITTLRRDLKALSDMGQVKWHHGLVERT”: the “soluble fraction (log2)” value was -0.229.

As to “HMKNVADEVFEKMLNMIIEGDWKKGEMIPSENELREAFSVSRSTVRQAVQRLSALGIVRSRQGKGTYVEQV”, the “soluble fraction (log2)” value was -1.7.

As to “HMKNYYELLGVAREASQDQIKKAYRKLARKYHPDVSKEADAETRMQELNVAYDTLSDAEKKREYDFQLDHP”, the “soluble fraction (log2)” value is 0.0883.

For the sequence “HMKPDDDMLLKILTKLFIQKQFVINSKDIFQYILKNTNRTYENIINIVNRLDTLSIEKKRQLTIPLIKEI”, the “soluble fraction (log2)” value is -0.585.

For the sequence “HMKPEQIELTFSGTTAMRLDKFLAENQPGLSRAKLQAIISSGSVEVNGKVITKQAFKLDPGDLVKALIPE”, the “soluble fraction (log2)” value is -1.23.

Consider “HMKPGWEDIFRMNQIQLEDAVRTVNRDDTLAPTKKAYLIQNLLASRWIVGNQLQAQKDKTTE”, for which the “soluble fraction (log2)” value is -0.126.

As for “HMKPGYVIQVNGTVTKIQSGLVYVKTPAAQYTLMRKYAPADAAVGDRVSLWINEEGMVIDVHGK”, the “soluble fraction (log2)” value is -2.03.

With “HMKPKDILLPNFTNLTLDEAKAKAEEVKLNLNVSEEKYDVQIEEGKIISQDPKYQPNYTVKEGSTVNVVVS”, the “soluble fraction (log2)” value is at least 1.04.

For the sequence “HMKPLIIPLELMQRLSSDKQLEAGFNRFSKSKQHEFAAYIAAAKRVETKVKRLEKIIPLILSGEGLNDR”, the “soluble fraction (log2)” value was -2.35.

In the case of “HMKPLRPVHLEIQTHRLSPVGILRSSFRQAGKVMHSNHGRITGLNLEQLKLIQAAFAGEALPK”, the “soluble fraction (log2)” value is -0.158.

“HMKPQIRRHEKITALVREHGFMSVEQLARELEVTPQTIRRDIGILSAENVLRRYHGGAALGD”: the “soluble fraction (log2)” value was -0.941.

As to “HMKPSNLTSDERTQLLAQLKTAMGSDQYNQLRRQVGEEKLLEYVLDNVPGIQEEILGNRAVQENIDLH”, the “soluble fraction (log2)” value was 0.0107.

On to “HMKPSTVSVPDVSGDKLSTAKMIIRKSGLKVGDVQKIEDDNVGAGKVVRTNPSAGSKKREGSSVDIFVASA”, for which the “soluble fraction (log2)” value is -0.0331.

Turning to “HMKPTVKGHFTRKESNVGGYADVRGWGVAGTPSMMANQSKDTRRFSTLIVPGRSVNVHPSPTKEAIIWWQS”, the “soluble fraction (log2)” value is -0.224.

Regarding “HMKPTVKKLLAALPELRSGQPLHLSVATRKLRDAGLLGKNASSPTLFRNYVAQFELIPENQPNAVRYR”, the “soluble fraction (log2)” value was -0.786.

Consider “HMKPVSEMDNMEWVREQYFQNMIYEIGEWVKDKKTGIVGEIVKRGTNYVTIVQEDFSLHKIWLEDLETTE”, for which the “soluble fraction (log2)” value was -0.428.

As to “HMKQDYYSILGVMRDASQEEIKRAYLDAAQRLHPDRNTSAGDTEMFLDVQQAYEVLSNPKRRAQYDATLP”, the “soluble fraction (log2)” value is 0.383.

With “HMKQEFEMGLPNGVGEQMLAHAIEKFDVKLEHSEFGPKLIGTYEELEKAKVFLYEAIEARLNQLE”, the “soluble fraction (log2)” value stood at 0.279.

Turning to “HMKQISNTDELETMVKKIIDDNEEQVNKYRGGNEKLFGWFVGQAMKNTGGTANPKVVNEILSKLLK”, the “soluble fraction (log2)” value was -0.0646.

In the case of “HMKQLLHLVIGGELKDVRGIEFEDLSKIDFVGAFPSYKAAYDAWKNAAQRTVDNAEMRYFILHAHR”, the “soluble fraction (log2)” value is -1.92.

On to “HMKQLRVLGIVKAGSILKNSDGSIEFVIEDSGKSLLVKYKGVIPDIFKDGVEAVVEGDLRGSVFNADKLF”, for which the “soluble fraction (log2)” value was -1.14.

Turning to “HMKQMNETQQKAFEIYLDSATFETDYKPISEEQLAAKLDALGLKGSSSSINRWKKDFNWAQALQNKVTLAM”, the “soluble fraction (log2)” value was -0.166.

As to “HMKQQNFADLAGRFVFNADNEVVFNFGKHKNVPVATVLKNEPGYYGWMMGGDFPLFTKKILKQIKEA”, the “soluble fraction (log2)” value is -1.05.

“HMKQTFGAMLAALRKEKGMTQLELAEQMGVTDKAVSKWERDLSFPDVTSLPRLAEILEVSVDELMQ”: the “soluble fraction (log2)” value is -0.146.

Consider “HMKQVNVVSVIGQSEANAKTTLTGLGLKVNVAYEEDTSKADGIVLKQSLEGGKTVNEGTTITITVNKIA”, for which the “soluble fraction (log2)” value came to 0.579.

As for “HMKQVSDTGAIDAAIREVMDANPDKVAEYRSGKDKLFGFFVGQIMRAMAGKAAPVVVNDRLKALLD”, the “soluble fraction (log2)” value was 0.123.

For “HMKQVTVGGTINAGGARIYADSYGNGGGRQTFGSDPIYTVLQERNGYILTRWHKLSSGYTGWFKKSDVSA”, the “soluble fraction (log2)” value is -0.917.

Consider “HMKQYSFEISKADFKKISENFNFKIINEINDSLIISLNDKNINLDELLIFFVERKIKVRSIENI”, for which the “soluble fraction (log2)” value is -3.69.

Consider “HMKREELTQQTKQNLREAFWSLYIQKPIEKITVKEITDIAGYNRGTFYLYYKDTYDLLAKIE”, for which the “soluble fraction (log2)” value was -0.279.

Regarding “HMKRLLLPGDLAGVRRHLLDRENSFHILRVLRLARGSTIEAMDDAGNRFSATLAGVKAGRALFDLAAKI”, the “soluble fraction (log2)” value was -1.75.

On to “HMKRLPAQMGGGDGVLRVPGLNNFVYVTIADKTLPAFNNRVPPKKGLRIWVGYSPEEPNLFQVLSTRTD”, for which the “soluble fraction (log2)” value was -1.83.

For “HMKRLPMRKIRDVLRLSADGLSTRKIGVSLTIGRTTVQAYLDRAAEVDLSWPLPPEMSDTDLERLIYPR”, the “soluble fraction (log2)” value was -3.14.

As for “HMKRNLVSVLDHIVGIGPKRRQSLRTHFGSLEKIKEASVEELAAAPGMNRTSAEAVRHFFDAQQELRGK”, the “soluble fraction (log2)” value amounted to 0.727.

As for “HMKRRSVIVSVVRAQVRQSADEAAAVVFEAEKNVSLDYLETMPGGWVKVRHRDGQTGFVRVNQIWG”, the “soluble fraction (log2)” value was -1.59.

Regarding “HMKRSFGYIRLLPSKRYQASYIGPDSQRHAAPETFTRKMDAEGWLSAERRLIEWDQWTSPEQRAAQARLD”, the “soluble fraction (log2)” value was -0.663.

Take “HMKRTRLEEAMDWLREQLNDGPVAYATLKDEAPKAEITLSTLRAAGEALRVDKQKKGVQWGGWTWSLPR”: the “soluble fraction (log2)” value was 0.00234.

On to “HMKRVTRQRTEILRVIDESERPLGPQEILQAGREAIPSLSIATIYRTLRDLLAEELIKTVALPGDSPRYES”, for which the “soluble fraction (log2)” value was -1.33.

On to “HMKSARDDILSALDKAGEPLSMKDIAELSGRKLSTLRAQMTRLVAEGAVQATAAAHSPDRKYRK”, for which the “soluble fraction (log2)” value was -0.319.

As to “HMKSARQIAILEIIAEKSIETQEDLADALRLRGFQVTQATVSRDIKELRLVKALAPDGTYRYATAEK”, the “soluble fraction (log2)” value is -1.57.

In the case of “HMKSEIRKKNSQIILDAAEHEFSVHGYRGTSVQMIADRSGLPKANLHYYYKSKSALYGAVLDRIL”, the “soluble fraction (log2)” value was 0.215.

As for “HMKSERHALILSLIEKKNVETQEDLAELLKERGVAVTQATVSRDIKELRLIKVLSETGGYKYATVDKAE”, the “soluble fraction (log2)” value is -0.908.

As to “HMKSIETVAELVAELKKLNPNAKISNIDGTYTLEEDINTITLPKDFKYDNNLGINNKIDDFTPYISLDVKA”, the “soluble fraction (log2)” value stood at 0.662.

On to “HMKSIRIPFILTEGPNSQKITIDIDSDEEFRIGDVFDEDDKLWSINQILISGDRKAKMAIASEVTSISALR”, for which the “soluble fraction (log2)” value is -2.01.

Take “HMKSKYLIKIEGDFDEKDLYKYLINVSIVNHTKNNGFTEVEFYNDNYSLQQNFLKSMLNDGIIITEFKKVE”: the “soluble fraction (log2)” value was -0.49.

On to “HMKSLHSEVTDRIRQLIVESHLQPGQRVPELEISRDLGVSRTPIREALKVLAAEGLVELLPLRGAMVK”, for which the “soluble fraction (log2)” value is -0.0555.

For “HMKSLLTARQLEVFEIARNKGYWTTPRKISLVELSKLLDISKSTLSVLLHSIEGKVMEEFYEEIRQ”, the “soluble fraction (log2)” value is -2.22.

Consider “HMKSNIIPLSLKKPQRLDIFLTNYFVDLSRTQIKKMITDGNIKVNDLIAKPSLKLIGDEIIFYTLPK”, for which the “soluble fraction (log2)” value was -1.46.

Regarding “HMKSNNPLDHVRVKQRGASWAYYFEKAKVDGKRRRGEGGGYATEQDARMAGVEAYNAYIGGGAK”, the “soluble fraction (log2)” value was -0.172.

As to “HMKSPVKLILRGSIYHIKISAVVNGQRIFVRESSHTTDKREAEQYANKRFAQLVEETEFRTN”, the “soluble fraction (log2)” value was -1.18.

As for “HMKSQSIFNVKKGDTLSHIAVHVLKKNKQKVTPEAINKMVSNIAFRNKIKNPDLIFPGQKLVLEY”, the “soluble fraction (log2)” value was -0.169.

“HMKSQVVAYSDFVKAVNQKQINEVQIQGDKIRAINKAGEEITVTWLQNDQKLMDDLLDNNVKTIFLE”: the “soluble fraction (log2)” value is 0.0189.

Consider “HMKSSYSGNFKQNVVEYMHNNHLSATETANHFKLGGGSVVLRWERIYYEEGPQALYEERRGR”, for which the “soluble fraction (log2)” value is -1.26.

In the case of “HMKSYAQIAEILSGQQPNTSRKEGSNLAVHADWIDALIAKYGTALRPEEANEVVKKEIGIVFSHVLEN”, the “soluble fraction (log2)” value was -0.412.

As for “HMKSYQKITPATEGNYLTTYREGDDIKTYEGVKAMYTPADFDASSVREITPEEHQSYQKAKEQALQEETEQ”, the “soluble fraction (log2)” value was -0.204.

For “HMKTALDEAKDFLNGALSKGHRPASDVVDEAKEASISEKTLKRAKLAIGIITRKEGFGSEGKWVWELPAR”, the “soluble fraction (log2)” value was -0.375.

Turning to “HMKTATAKIKATPFGWLRVRETPSLNGAEIARVNSGESYKILERGEGWIKIKVSDTVEGWVSEAYVELS”, the “soluble fraction (log2)” value was -0.244.

With “HMKTEKYIQVISGTVNVRSGPGTSYAEIAKIDASQIYVVTAKEGEWLKISLANGTIGYVAGWLVKEVTG”, the “soluble fraction (log2)” value is -1.47.

As to “HMKTEVNITPGIIDWIERYVQTDKISSSMTEDFQHWKSGTKKPTFNQVEAFSKAINVPLGYFFLKTPPAE”, the “soluble fraction (log2)” value was -0.725.

For the sequence “HMKTFSFEILADTVKKQRKAKGMTQAELSEATGINRSMIGQMENMTFKPSIEQLEALSQALDFNVIDLYTE”, the “soluble fraction (log2)” value is -0.325.

For “HMKTGHLPVTVIIDGRIISDNLYKTGLSNNWLADQLRKNSIKSSEDVFFAYLNPERKFIYQLRSNS”, the “soluble fraction (log2)” value was -1.49.

As for “HMKTGNIVMVNLGWKGKYYSIKMFFPQVSKPSRKDVQDQIEKIYPGGKLYTFVVSNYEPGEPMLHA”, the “soluble fraction (log2)” value was -1.41.

Take “HMKTITLDEAQEIALAEVDGKVTRAVEETDDGRSYYEFDIITNDQKHELEVDASSGKITKNEIDEDYVPS”: the “soluble fraction (log2)” value worked out at 0.0581.

Regarding “HMKTITVEDEQAGKRLDKALAELFPHYSRSALEKLIKEGQVLVNKSFVKSKYSLKLGDEISLQFEQL”, the “soluble fraction (log2)” value was -0.325.

Turning to “HMKTKILAPIPGSIMVVDVKVGDTVKVGDRLVQLEAMKMENNITSEKAGKITAVLVTAGQKVLQNEVMIEL”, the “soluble fraction (log2)” value was -1.01.

“HMKTLLSMNIKNLRKKKNMTLEELAEKVGTSKQTIQRYESGKISNIPSDKIELLAKYLDTTPAKLMGW”: the “soluble fraction (log2)” value is -0.139.

For the sequence “HMKTLNKRQQDIINLAREEGFVTVEHLSEYFKVTQQTIRRDLGYLSENLYLARTYGGAFFQS”, the “soluble fraction (log2)” value is -0.854.

As for “HMKTTKLEELDMQKEFILKNGKYGFGVYIGGKYIGLTDIGTVNSFKDSLQLPVVSLSDIDFKTFAEKF”, the “soluble fraction (log2)” value was -1.27.

Take “HMKTYEILFDILSRESDYISGEKLAQELGISRTSIWKAIQHLEKEGVHIESVKNKGYKLLSGDLLIAEKI”: the “soluble fraction (log2)” value is -1.77.

Values taken from the domain aggregation screens of Martell et al. (2025).
